Assay results published in patent publication CN105968202A (UNIV NANCHANG, dated 2016).

Key:
[1] = target: T1, PSMA on LNCaP cells (前列腺癌细胞LNCaP表达PSMA) (UniProt Q04609 1-750, limits assumed); experiment: cell ELISA (HRP-anti-M13, OD450) and immunofluorescence (anti-M13 + FITC secondary) on fixed LNCaP cells versus PSMA-negative MKN45 cells
T1 construct: whole, on cells; Endogenous PSMA on fixed LNCaP cells; PSMA-negative MKN45 gastric cancer cells served as the negative cell line; also called 前列腺特异性膜抗原

[2] = target: T2, PSMA胞外区蛋白 (重组表达的前列腺特异性膜抗原膜外区) (UniProt Q04609 44-750, limits assumed); experiment: indirect phage-ELISA, PSMA extracellular region coated at 5 μg/mL, HRP-anti-M13 detection (ELISA-positive clone)
T2 construct: extracellular domain; Expressed from vector pRAG2a in HEK-293 cells, purified with HisTrap FF Crude and detected with anti-His antibody, so it carries a His tag; also called PSMA蛋白; PSMA抗原
T2 sequence (Q04609 44-750 limits assumed): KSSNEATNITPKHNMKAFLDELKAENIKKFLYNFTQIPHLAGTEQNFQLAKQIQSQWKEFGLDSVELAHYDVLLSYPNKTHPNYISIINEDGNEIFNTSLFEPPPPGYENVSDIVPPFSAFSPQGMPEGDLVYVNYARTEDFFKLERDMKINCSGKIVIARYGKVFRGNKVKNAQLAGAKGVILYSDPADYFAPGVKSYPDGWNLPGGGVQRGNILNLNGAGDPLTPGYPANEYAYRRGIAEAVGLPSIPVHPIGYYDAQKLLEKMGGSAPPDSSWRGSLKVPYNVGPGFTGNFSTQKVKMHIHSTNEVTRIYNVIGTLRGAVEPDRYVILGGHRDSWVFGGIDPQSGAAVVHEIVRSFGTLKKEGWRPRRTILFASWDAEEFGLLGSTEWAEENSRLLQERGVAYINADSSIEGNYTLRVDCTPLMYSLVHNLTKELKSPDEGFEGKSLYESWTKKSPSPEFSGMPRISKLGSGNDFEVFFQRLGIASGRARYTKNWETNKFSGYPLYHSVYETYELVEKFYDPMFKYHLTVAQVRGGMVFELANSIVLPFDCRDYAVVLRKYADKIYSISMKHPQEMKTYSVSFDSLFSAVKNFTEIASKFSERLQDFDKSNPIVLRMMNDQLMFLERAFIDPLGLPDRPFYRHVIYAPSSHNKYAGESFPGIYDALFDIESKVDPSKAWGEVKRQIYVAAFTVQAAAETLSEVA

T1 sequence (Q04609 whole entry): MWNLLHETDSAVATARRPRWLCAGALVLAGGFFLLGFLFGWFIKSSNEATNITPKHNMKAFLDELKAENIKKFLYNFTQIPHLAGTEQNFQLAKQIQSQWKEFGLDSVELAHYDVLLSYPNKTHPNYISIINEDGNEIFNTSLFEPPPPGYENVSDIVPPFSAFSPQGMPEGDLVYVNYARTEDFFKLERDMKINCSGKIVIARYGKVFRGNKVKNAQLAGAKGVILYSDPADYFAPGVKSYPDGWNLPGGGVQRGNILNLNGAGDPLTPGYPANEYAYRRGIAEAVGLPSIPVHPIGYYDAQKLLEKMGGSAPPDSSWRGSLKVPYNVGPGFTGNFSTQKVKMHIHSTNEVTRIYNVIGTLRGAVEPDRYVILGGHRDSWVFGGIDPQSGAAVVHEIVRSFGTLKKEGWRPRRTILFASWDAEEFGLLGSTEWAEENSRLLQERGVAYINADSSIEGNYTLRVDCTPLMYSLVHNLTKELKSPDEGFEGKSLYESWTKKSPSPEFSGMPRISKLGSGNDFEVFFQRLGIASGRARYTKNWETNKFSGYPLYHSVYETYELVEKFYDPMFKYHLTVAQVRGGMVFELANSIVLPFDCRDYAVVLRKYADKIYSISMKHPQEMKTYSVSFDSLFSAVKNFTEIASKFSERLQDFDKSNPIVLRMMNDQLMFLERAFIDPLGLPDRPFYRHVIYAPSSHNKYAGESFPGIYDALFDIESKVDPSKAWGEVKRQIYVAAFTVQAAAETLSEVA

B1: 抗前列腺特异性膜抗原单域重链抗体噬菌体阳性克隆 (VHH)
VHH: QVQLVESGGGLVQAGGSLRLSCVVSGRAFRRYAMGWFRQAPGKEREFVAAIRRSRSTYYADSVKGRFTISRDNAKKTVYLQMNSLKPEDTAVYYCAADPVDSVYNTLRAWGYWGQGTQVTVSS
notes: The phage coat protein fusion partner and any linker are not described; also called 针对前列腺特异性膜抗原的单域重链抗体阳性克隆; 展示本发明所述纳米抗体的噬菌体克隆
- binding result [1]: binds
- binding result [2]: binds
